{"source": "patent US20150044666A1", "key": {"[1]": {"target": "Recombinant HIV-1 p24 (HIV-1) (UniProt P04591)", "test": "forward two-site immuno-PCR; p24 0.1 pg/mL; reporter MAb-DNA 5 pM"}, "[2]": {"target": "Recombinant HIV-1 p24 (HIV-1) (UniProt P04591)", "test": "forward two-site immuno-PCR; p24 0.1 pg/mL; reporter MAb-DNA 10 pM"}, "[3]": {"target": "Recombinant HIV-1 p24 (HIV-1) (UniProt P04591)", "test": "forward two-site immuno-PCR; p24 0.1 pg/mL; reporter MAb-DNA 15 pM"}, "[4]": {"target": "Recombinant HIV-1 p24 (HIV-1) (UniProt P04591)", "test": "forward two-site immuno-PCR; p24 0.1 pg/mL; reporter MAb-DNA 20 pM"}, "[5]": {"target": "Recombinant HIV-1 p24 (HIV-1) (UniProt P04591)", "test": "forward two-site immuno-PCR; p24 0.1 pg/mL; reporter MAb-DNA 50 pM"}, "[6]": {"target": "Recombinant HIV-1 p24 (HIV-1) (UniProt P04591)", "test": "forward two-site immuno-PCR; p24 0.1 pg/mL; reporter MAb-DNA 2.5 pM"}, "[7]": {"target": "Recombinant HIV-1 p24 (HIV-1) (UniProt P04591)", "test": "forward two-site immuno-PCR, 10 pM reporter MAb-DNA, capture MAb 739P on particles; p24 at 1 pg/mL"}, "[8]": {"target": "Recombinant HIV-1 p24 (HIV-1) (UniProt P04591)", "test": "forward two-site immuno-PCR, 10 pM reporter MAb-DNA, capture MAb 739P on particles; p24 at 10 pg/mL"}, "[9]": {"target": "Recombinant HIV-1 p24 (HIV-1) (UniProt P04591)", "test": "forward two-site immuno-PCR, 10 pM reporter MAb-DNA, capture MAb 739P on particles; p24 at 0.1 pg/mL"}, "[10]": {"target": "Recombinant HIV-1 p24 (HIV-1) (UniProt P04591)", "test": "forward two-site immuno-PCR, 10 pM reporter MAb-DNA, capture MAb 739P on particles; p24 at 0.01 pg/mL"}, "[11]": {"target": "Recombinant HIV-1 p24 (HIV-1) (UniProt P04591)", "test": "method not stated; rate and equilibrium constants listed for commercially available anti-HIV p24 antibodies"}}}
{"substance": "NIH AIDS Research & Reference Reagent Program HIV-1 183-H12-5C (antibody)", "values": [{"measurement": "Average ΔThreshold Cycle (ΔCp) over blank", "setting": "[1]", "value": 2.6, "unit": "cycles"}, {"measurement": "Average ΔThreshold Cycle (ΔCp) over blank", "setting": "[2]", "value": 2.2, "unit": "cycles"}, {"measurement": "Average ΔThreshold Cycle (ΔCp) over blank", "setting": "[3]", "value": 2, "unit": "cycles"}, {"measurement": "Average ΔThreshold Cycle (ΔCp) over blank", "setting": "[4]", "value": 1.5, "unit": "cycles"}, {"measurement": "Average ΔThreshold Cycle (ΔCp) over blank", "setting": "[5]", "value": 0.9, "unit": "cycles"}, {"measurement": "Average ΔThreshold Cycle (ΔCp) over blank", "setting": "[6]", "value": 0.3, "unit": "cycles"}, {"measurement": "Threshold Cycle (Ct)", "setting": "[7]", "value": 20.6, "unit": "cycles"}, {"measurement": "Threshold Cycle (Ct)", "setting": "[8]", "value": 17.7, "unit": "cycles"}, {"measurement": "Threshold Cycle (Ct)", "setting": "[9]", "value": 23.8, "unit": "cycles"}, {"measurement": "Threshold Cycle (Ct)", "setting": "[10]", "value": 26.6, "unit": "cycles"}, {"measurement": "Kd", "setting": "[11]", "value": 3.93, "unit": "nM"}, {"measurement": "koff", "setting": "[11]", "value": "5.9e-05", "unit": "s⁻¹"}, {"measurement": "kon", "setting": "[11]", "value": 15000, "unit": "M⁻¹ s⁻¹"}]}
